# Assay results from patent US20190359653A1 (Genentech, published 2019).
# Numbered stars: 1 amine (or outer) side, 2 acyl side, 3 side chain; on linkers, the order of the positions; unused ones are H or OH. Square brackets hold non-standard residues; d marks the D form. Ends that are not written are not given here. * marks the point of attachment. ξ: configuration not given here. Adp = 2-amino-3-decyloxy-propionic acid, CCCCCCCCCCOC[C@H](N[*:1])C(=O)[*:2]; Tbh = 6-hydroxy-L-norleucine, O=C([C@H](CCCCO[*:3])N[*:1])[*:2]; hPhe = N[C@@H](CCc1ccccc1)C(=O)O; ξGly(octyl) = CCCCCCCCC(N)C(=O)O; hLeu = CC(C)CC[C@H](N)C(=O)O; Octanoyl = CCCCCCCC(=O)*
# B1: SEQ ID NO 12 (peptide)
# peptide: PPNVHEGCWSMFPW
# B2: SEQ ID NO 6 (peptide)
# peptide: DTDLHQWCLWFT
# B3: SEQ ID NO 14 (peptide)
# peptide: DTDLLQWCLWFT
# B4: SEQ ID NO 19 (peptide)
# peptide: LPLFFLSYVL
# B5: SEQ ID NO 21 (peptide)
# peptide: SCQMWSNLRVLFLSYW
# B6: SEQ ID NO 26 (peptide)
# peptide: FCENPYIICW
# B7: SEQ ID NO 9 (peptide)
# peptide: ACSYVIDLWNLCLR
# B8: SEQ ID NO 20 (peptide)
# peptide: FLPDQHSHLFLPWGEP
# B9: SEQ ID NO 22 (peptide)
# peptide: VFVPFSELTSLC
# B10: SEQ ID NO 23 (peptide)
# peptide: IWFKGRFVEFSSLV
# notes: also called Fz7-17
# B11: SEQ ID NO 10 (peptide)
# peptide: ASELHDWCRMMFPW
# B12: SEQ ID NO 18 (peptide)
# peptide: ILTFEYFWILGLIL
# B13: SEQ ID NO 31 (peptide)
# peptide: FWFDFWFG
# B14: SEQ ID NO 29 (peptide)
# peptide: ERRVCYPWFEVSQP
# B15: SEQ ID NO 11 (peptide)
# peptide: ISLIEAMIALDRVF
# notes: also called Fz7-06
# B16: SEQ ID NO 28 (peptide)
# peptide: VFFYHSLFFIKLILDP
# B17: SEQ ID NO 2 (peptide)
# peptide: TYFDDICNLILPWANP
# B18: SEQ ID NO 25 (peptide)
# peptide: EHDLLLRAMNSFVLIF
# B19: SEQ ID NO 3 (peptide)
# peptide: PQDLLDWCHYMIVSSD
# B20: SEQ ID NO 17 (peptide)
# peptide: GDFWPGSLLWEILV
# B21: SEQ ID NO 24 (peptide)
# peptide: NAFWRDQCLEWFIICL
# B22: SEQ ID NO 30 (peptide)
# peptide: LSSGKKVSSYWFNFWF
# B23: SEQ ID NO 8 (peptide)
# peptide: FELLLDLGDLIRLW
# B24: SEQ ID NO 7 (peptide)
# peptide: FWMLLQEGFAFWFP
# B25: SEQ ID NO 27 (peptide)
# peptide: NPPPECFLSK
# B26: SEQ ID NO 32 (peptide)
# peptide: SSDFSGCLSWCDLIFG
# modifications: not fully specified; cysteine pairing not given here
# notes: cyclic peptide library
# B27: SEQ ID NO 37 (peptide)
# peptide: FDFCSVMPHFIYCPGD
# modifications: not fully specified; cysteine pairing not given here
# notes: cyclic peptide library
# B28: SEQ ID NO 36 (peptide)
# peptide: FDFCTVMPHFIYCPGD
# modifications: not fully specified; cysteine pairing not given here
# notes: cyclic peptide library
# B29: SEQ ID NO 33 (peptide)
# peptide: FDFCSVMPQFIYCPGD
# modifications: not fully specified; cysteine pairing not given here
# notes: cyclic peptide library; also called Fz7-20
# B30: SEQ ID NO 34 (peptide)
# peptide: HLSDVCCSDWCDLVFW
# modifications: not fully specified; cysteine pairing not given here
# notes: cyclic peptide library
# B31: SEQ ID NO 38 (peptide)
# peptide: HLSDVFCSDWCDLVFW
# modifications: not fully specified; cysteine pairing not given here
# notes: cyclic peptide library
# B32: SEQ ID NO 35 (peptide)
# peptide: TSDFSWCLSWCDLIFW
# modifications: not fully specified; cysteine pairing not given here
# notes: cyclic peptide library
# B33: Fz7-21C (peptide)
# peptide: Ac-LPSDDLEFW[dC]HVMY-NH2
# B34: Fz7-21N (peptide)
# peptide: Ac-LPSDNLEFWCHVMY-NH2
# B35: dFz7-21Δ2 (Q519) (peptide)
# peptide: Ac-SDDLEFWCHVMY-NH2
# modifications: also: homodimer via Cys8 disulfide
# B36: Fz7-21S (peptide)
# peptide: Ac-LPSDDLEFWSHVMY-NH2
# B37: dFz7-21 (peptide)
# peptide: Ac-LPSDDLEFWCHVMY-NH2
# modifications: also: homodimer via Cys10-Cys10 disulfide
# B38: dFz7-21Δ2.M13Tbh (peptide)
# peptide: Ac-SDDLEFWCHV[Tbh]Y-NH2
# modifications: also: dimer via disulfide bond at Cys8
# B39: dFz7-21Δ2.L6Hof (peptide)
# peptide: Ac-SDD[hPhe]EFWCHVMY-NH2
# modifications: also: dimer via disulfide bond at Cys8
# B40: dFz7-21Δ2.M13Adp (peptide)
# peptide: Ac-SDDLEFWCHV[Adp]Y-NH2
# modifications: also: dimer via disulfide bond at Cys8
# B41: dFz7-21Δ2.L6Hol (peptide)
# peptide: Ac-SDD[hLeu]EFWCHVMY-NH2
# modifications: also: dimer via disulfide bond at Cys8
# B42: dFz7-21Δ2.L6KC (8) (peptide)
# peptide: Ac-SDDK(Octanoyl)EFWCHVMY-NH2
# modifications: also: dimer via disulfide bond at Cys8
# B43: dFz7-21Δ2.M13C8 (peptide)
# peptide: Ac-SDDLEFWCHV[ξGly(octyl)]Y-NH2
# modifications: also: dimer via disulfide bond at Cys8
# Target: T1, hFZD8 CRD-Fc (human, UniProt Q9H461 28-158, limits assumed)
# T1 construct: domain: CRD; bought (R&D Systems); not shown: Fc part
# T1 sequence (looked up): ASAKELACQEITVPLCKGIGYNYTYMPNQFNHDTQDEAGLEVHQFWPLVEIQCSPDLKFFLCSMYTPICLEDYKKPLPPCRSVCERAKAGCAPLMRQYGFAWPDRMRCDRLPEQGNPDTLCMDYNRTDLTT
# Assay: spot phage ELISA
row,Binder,signal:noise ratio
1,B1,1.3
2,B2,9.3
3,B3,6
4,B4,1.1
5,B5,0.7
6,B6,0.8
7,B7,1.5
8,B8,1
9,B9,1
10,B10,1
11,B11,1.3
12,B12,1.1
13,B13,0.8
14,B14,1.2
15,B15,25.8
16,B16,1.3
17,B17,1.4
18,B18,1
19,B19,1.3
20,B20,1
21,B21,1.1
22,B22,1
23,B23,2
24,B24,6.4
25,B25,1.1

# Target: T2, hFZD7 CRD-Fc (human, UniProt O75084 33-185)
# Assay: spot phage ELISA
row,Binder,signal:noise ratio
1,B1,28.1
2,B2,30.2
3,B3,31.1
4,B4,6.3
5,B5,1
6,B6,8.6
7,B7,27.6
8,B8,5.3
9,B9,7.8
10,B10,7.7
11,B11,28.9
12,B12,4.5
13,B13,4.2
14,B14,2.6
15,B15,27
16,B16,4.7
17,B17,27.5
18,B18,7.6
19,B19,29.1
20,B20,4.4
21,B21,5.5
22,B22,3.5
23,B23,26.9
24,B24,30.5
25,B25,5.2

# Target: T1, hFZD8 CRD-Fc
# Assay: spot phage ELISA
# Remark: another data set of the same source
row,Binder,signal:noise ratio
1,B26,1.39
2,B27,1.12
3,B28,2.01
4,B29,2.1
5,B30,1.09
6,B31,1.28
7,B32,1.27

# Target: T2, hFZD7 CRD-Fc
# Assay: spot phage ELISA
# Remark: another data set of the same source
row,Binder,signal:noise ratio
1,B26,28.4
2,B27,27.5
3,B28,27.4
4,B29,26
5,B30,16.1
6,B31,17.5
7,B32,28.4

# Target: T3, FZD7 receptor of HEK293-TB cells (human, UniProt O75084 33-574)
# Assay: cell-based or functional assay
Binder,fold reduction of the potency of Wnt1 inhibition against Fz7-21 (FIG. 2D) [fold],fold reduction of the potency of Wnt3a inhibition against Fz7-21 (FIG. 2D) [fold]
B33,16,31

# Target: T3, FZD7 receptor of HEK293-TB cells
# Assay: cell-based or functional assay
# Remark: another data set of the same source
row,Binder,"IC50 (µM), Wnt3a-mediated β-catenin signaling, TOPbrite reporter in HEK293-TB cells (50 ng/mL mWnt3a) [µM]"
1,B34,0.41

# Target: T3, FZD7 receptor of HEK293-TB cells
# Assay: cell-based or functional assay
# Remark: another data set of the same source
Binder,"IC50 (nM), TOPbrite reporter assay in HEK293-TB cells stimulated with mWnt3a (50 ng/mL) [nM]",Reduction in fold potency vs. dimer [fold]
B35,8.8,1
B36,,> 9000
B37,11.1,1

# Target: T3, FZD7 receptor of HEK293-TB cells
# Assay: cell-based or functional assay
# Remark: another data set of the same source
Binder,"Best Fit IC50 (nM), Wnt3a-mediated β-catenin signaling in HEK293-TB cells (50 ng/mL mWnt3a) [nM]","Best Fit IC50 (nM), Wnt3a-mediated β-catenin signaling in HEK293-TB cells (50 ng/mL mWnt3a), n = 2 [nM]"
B38,477,
B39,14.9,
B40,1410,
B35,4.3,
B41,,16600
B42,1170,
B43,14000,
B37,14.1,
